This experiment deals with T1, CREBL1 (Homo sapiens, UniProt Q99941).
T1 construct: expressed in transfected cells; host or cells: HEK293T
T1 sequence (Q99941 1-703): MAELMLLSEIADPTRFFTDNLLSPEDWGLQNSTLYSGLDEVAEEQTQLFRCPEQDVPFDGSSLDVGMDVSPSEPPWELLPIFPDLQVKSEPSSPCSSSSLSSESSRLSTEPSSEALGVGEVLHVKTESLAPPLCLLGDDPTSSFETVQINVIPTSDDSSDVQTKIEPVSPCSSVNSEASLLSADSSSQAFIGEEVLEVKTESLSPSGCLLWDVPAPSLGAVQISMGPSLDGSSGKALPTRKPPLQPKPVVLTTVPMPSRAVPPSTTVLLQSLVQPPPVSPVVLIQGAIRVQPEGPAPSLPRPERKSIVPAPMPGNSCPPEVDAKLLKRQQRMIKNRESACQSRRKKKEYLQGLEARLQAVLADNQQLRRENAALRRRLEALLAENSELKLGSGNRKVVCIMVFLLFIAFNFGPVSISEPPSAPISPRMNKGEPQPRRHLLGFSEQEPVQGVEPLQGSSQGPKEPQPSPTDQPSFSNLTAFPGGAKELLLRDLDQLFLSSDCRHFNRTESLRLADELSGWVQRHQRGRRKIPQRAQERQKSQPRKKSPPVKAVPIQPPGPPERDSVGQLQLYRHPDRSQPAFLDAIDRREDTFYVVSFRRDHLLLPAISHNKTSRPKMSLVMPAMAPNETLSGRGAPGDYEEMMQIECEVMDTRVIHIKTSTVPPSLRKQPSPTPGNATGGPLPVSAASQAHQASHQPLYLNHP
The experiment can be described thus: In vitro protease assay, CREBL1 captured on resin. In kind it is biochemical. To be noted: 50 μg/ml, 37° C., overnight (O/N), anti-c-Myc detection. On the procedure:
CREBL1 and ATF6 which were captured on the resin were used in the experiments in order to eliminate the influence of proteinaceous impurities contained in the soluble fractions prepared from the cells obtained by transfecting an expression plasmid of CREBL1 or ATF6. Three hundreds μl of each soluble fraction of CREBL1 and ATF6 was dispensed to six tubes (Nos. 1 to 6), followed by adding 20 μl of protein G sepharose 4 FF (Amersham) of 50% slurry that had been subjected to blocking with BSA, to each of tubes, subjected to overturned mixing at 4° C. for 1 hour, and then subjected to centrifugation (10,000 rpm, 10 sec, 4° C.) to collect the supernatant, and thus the pre-treatment (pre-clean) was performed. The resultant supernatant was mixed with 1.7 μl (2 μg) of anti-Myc antibody (Invitrogen), subjected to overturned mixing at 4° C. for 3 hours, followed by adding 20 μl of protein G sepharose 4 FF that had been subjected to blocking with BSA, and then subjected to overturned mixing at 4° C. overnight. Thus, CREBL1 and ATF6 were respectively captured on protein G sepharose 4 FF. […]

B1: mature HtrA2: SEQ ID NO: 4; mature protein generated from HtrA2 precursor by cleavage of N-terminal 133 residues, has protease activity (protein, listed as Homo sapiens)
chain: MAVPSPPPASPRSQYNFIADVVEKTAPAVVYIEILDRHPFLGREVPISNGSGFVVAADGLIVTNAHVVADRRRVRVRLLSGDTYEAVVTAVDPVADIATLRIQTKEPLPTLPLGRSADVRQGEFVVAMGSPFALQNTITSGIVSSAQRPARDLGLPQTNVEYIQTDAAIDFGNSGGPLVNLDGEVIGVNTMKVTAGISFAIPSDRLREFLHRGEKKNSSSGISGSQRRYIGVMMLTLSPSILAELQLREPSFPDVQHGVLIHKVILGSPAHRAGLRPGDVILAIGEQMVQNAEDVYEAVRTQSQLAVQIRRGRETLTLYVTPEVTE
modifications: mature HtrA2
With B1, the “degradation of CREBL1 (band by western blotting)” value is given as “the band of CREBL1 was reduced significantly”.

These data come from patent US20070196354A1, “Method of treating diabetes by inhibiting degradation of at least one of crebl1, atf6, and hnf-4 alpha by htra” (priority 2003, published 2007).
